According to patent CN112521494A (WUHAN INST OF BIOLOGICAL PRODUCTS CO LTD, dated 2021):

Experiments:
[1] = molecular target: SARS-CoV-2刺突S1亚基蛋白(Sino公司，货号:40591-V02H) (SARS-CoV-2, UniProt P0DTC2 16-685)
[2] = molecular target: T1, SARS-CoV-2刺突S1-His重组蛋白(Sino公司，货号:40591-V08H) (SARS-CoV-2, UniProt P0DTC2 16-685); experiment: ELISA; S1-His coated at 1.0 μg/mL, goat anti-human IgG-HRP detection
T1 construct: domain: S1; also called S1蛋白; 刺突蛋白S1

B1: 抗SARS-CoV-2的单克隆抗体2B11 (antibody, V domains shown)
VH: EVQLVESGGGLVQPGGSLRLSCAASEITVSSNYMNWVRQAPGKGLEWVSVIYSGGTTYYADSVKGRFTISRDNSENTLYLQMNSLRAEDTAVYYCARDLMEVGGMDVWGQGTTVTVSS
VL: LPVLTQPPSASGTPGQRVTISCSGSSSNVENDNVNWFQQQVPGSTPKLVIYNDRLRPSGVPDRFSGSKSGTSAYLAISGLQSEDEADYYCVAWDASLQSYVFGTGTKVTVL
notes: also called 2B11抗体; 人源抗SARS-CoV-2抗体2B11
IC50 [1]: 2.79 nM | EC50 [2]: 0.051 nM
